Tests used:
[1] = biological target: 2F5-specific peptide; test: ELISA on peptide MPER (659-671), antibody titrated
[2] = biological target: HIV-1 Env of isolate COT6, mutant D674T (HIV-1); test: cell-based or functional assay
[3] = biological target: HIV-1 Env of isolate COT6, mutant D674E (HIV-1); test: cell-based or functional assay
[4] = biological target: HIV-1 Env of isolate COT6 (wild-type) (HIV-1); test: cell-based or functional assay

| EC50 (read off the curve) [1] [ng/mL] | Substance | Fold increase in IC50 relative to wild-type COT6 [2] [fold] | Fold increase in IC50 relative to wild-type COT6 [3] [fold] | Fold increase in IC50 (wild-type COT6, the reference) [4] [fold] |
| --- | --- | --- | --- | --- |
| 6 | 2F5 (antibody) |  |  |  |
|  | 10E8 (antibody) | 36 | 17.5 | 1 |

Source: patent US20240124560A1
